Measurements published in US20250340653A1.

Target: Canine IL-31RA ECD-10His (canine)
Experiment: ELISA, IL-31RA coated at 1 ug/mL, biotinylated IL-31 titrated, HRP-streptavidin

Canine IL-31RA ECD-10His (canine), sequence (chain, as listed by the source limits assumed): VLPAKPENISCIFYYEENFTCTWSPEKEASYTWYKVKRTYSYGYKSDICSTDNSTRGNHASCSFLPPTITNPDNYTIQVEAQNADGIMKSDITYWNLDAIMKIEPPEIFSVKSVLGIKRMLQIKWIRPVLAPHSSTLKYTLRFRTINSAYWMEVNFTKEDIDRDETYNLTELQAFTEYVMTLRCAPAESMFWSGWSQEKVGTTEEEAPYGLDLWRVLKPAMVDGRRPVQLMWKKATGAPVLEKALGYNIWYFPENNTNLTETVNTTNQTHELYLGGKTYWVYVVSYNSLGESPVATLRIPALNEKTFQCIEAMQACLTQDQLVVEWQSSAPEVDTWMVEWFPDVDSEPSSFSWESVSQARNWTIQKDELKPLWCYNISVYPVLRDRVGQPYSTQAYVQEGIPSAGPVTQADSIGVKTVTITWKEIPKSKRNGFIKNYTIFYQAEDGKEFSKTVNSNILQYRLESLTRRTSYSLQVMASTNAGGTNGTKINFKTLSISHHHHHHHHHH

- EC50: 0.55 ng/mL
Substance: canine IL-31 (ligand)
